Assay results reported in US20190263932A1 (Eli Lilly, published 2019).
Where a chain is given by its changes, count along the chain named. Where two headings read alike, the source gives them in different places. Values belong to the binder of their own block, whether it stands above or below them.

Tests used:
[1] = molecular target: T1, Human TrkA Extracellular Domain Isoform 1 (33-414) (human, UniProt P04629 33-414); experiment: SPR, mAb captured on Protein A chip, 37 C
T1 construct: SPR analyte; also called Human TrkA Isoform 1
T1 sequence (P04629 other isoform, or with tags, fused parts or gaps): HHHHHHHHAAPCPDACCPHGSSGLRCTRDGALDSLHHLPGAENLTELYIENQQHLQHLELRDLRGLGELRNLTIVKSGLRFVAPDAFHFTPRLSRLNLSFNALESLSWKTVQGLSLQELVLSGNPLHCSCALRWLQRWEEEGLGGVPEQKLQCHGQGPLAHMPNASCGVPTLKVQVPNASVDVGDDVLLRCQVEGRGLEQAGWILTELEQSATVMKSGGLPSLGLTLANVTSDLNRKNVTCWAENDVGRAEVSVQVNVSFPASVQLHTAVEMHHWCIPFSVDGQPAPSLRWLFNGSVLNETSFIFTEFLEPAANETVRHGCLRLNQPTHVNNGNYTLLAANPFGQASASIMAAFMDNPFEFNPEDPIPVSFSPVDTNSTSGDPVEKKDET
Method: (§1) The binding kinetics and affinity of exemplified antibodies to human, cynomolgus monkey, rat, mouse, and rabbit TrkA are determined as described below using a surface plasmon resonance assay on a BIACORE™ 8K instrument (GE Healthcare). Two different isoforms of human TrkA (isoform 1 and isoform 2) are evaluated along with human TrkB and human TrkC. […] All FC2 on all eight channels are set to capture approximately 89 response units (RU) of antibody at a flow rate of 10 μL/min. The antibody sample is prepared at 1 μg/mL by dilution into the running buffer. […] Before the analysis cycle, the chip is regenerated with 3 injections of glycine (pH ˜1.5) at 100 μL/min for a contact time of 15 seconds on FC1 and FC2 in order to clean the surface of the chip.

[2] = molecular target: T2, Cynomolgus monkey TrkA Extracellular Domain (59-434) (cynomolgus monkey, UniProt P04629 35-414 (human entry)); experiment: SPR, mAb captured on Protein A chip, 37 C
T2 construct: SPR analyte
T2 chain: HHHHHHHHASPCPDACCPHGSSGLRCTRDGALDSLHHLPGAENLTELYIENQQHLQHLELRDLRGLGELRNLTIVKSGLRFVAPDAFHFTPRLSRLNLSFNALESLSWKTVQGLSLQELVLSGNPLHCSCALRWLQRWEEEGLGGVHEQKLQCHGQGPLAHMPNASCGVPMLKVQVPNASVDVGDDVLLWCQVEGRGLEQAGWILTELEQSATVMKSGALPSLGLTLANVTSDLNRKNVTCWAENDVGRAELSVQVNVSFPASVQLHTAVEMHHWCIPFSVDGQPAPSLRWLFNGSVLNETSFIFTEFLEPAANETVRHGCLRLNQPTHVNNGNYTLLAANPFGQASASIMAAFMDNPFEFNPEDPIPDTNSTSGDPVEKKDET
Method: as §1

[3] = molecular target: T3, Human TrkA Extracellular Domain Isoform 2 (33-408) (human, UniProt P04629 33-414); experiment: SPR, mAb captured on Protein A chip, 37 C
T3 construct: SPR analyte; also called Human TrkA Isoform 2
T3 sequence (P04629 other isoform, or with tags, fused parts or gaps): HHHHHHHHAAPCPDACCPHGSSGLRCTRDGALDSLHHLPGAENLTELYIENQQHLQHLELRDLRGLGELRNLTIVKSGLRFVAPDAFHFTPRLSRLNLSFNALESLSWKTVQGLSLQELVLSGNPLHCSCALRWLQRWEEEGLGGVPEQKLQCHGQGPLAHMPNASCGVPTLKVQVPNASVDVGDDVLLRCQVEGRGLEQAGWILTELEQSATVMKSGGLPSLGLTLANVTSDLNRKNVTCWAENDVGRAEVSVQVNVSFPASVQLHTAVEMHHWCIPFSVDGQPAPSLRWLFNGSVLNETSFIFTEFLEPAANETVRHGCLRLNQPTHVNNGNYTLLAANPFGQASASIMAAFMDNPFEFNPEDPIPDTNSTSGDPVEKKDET
Method: as §1

[4] = molecular target: T4, Mouse TrkA Extracellular Domain (33-417 with 396-401 deletion) (mouse, UniProt Q3UFB7 34-417); experiment: SPR, mAb captured on Protein A chip, 37 C
T4 construct: SPR analyte
T4 sequence (Q3UFB7 other isoform, or with tags, fused parts or gaps limits assumed): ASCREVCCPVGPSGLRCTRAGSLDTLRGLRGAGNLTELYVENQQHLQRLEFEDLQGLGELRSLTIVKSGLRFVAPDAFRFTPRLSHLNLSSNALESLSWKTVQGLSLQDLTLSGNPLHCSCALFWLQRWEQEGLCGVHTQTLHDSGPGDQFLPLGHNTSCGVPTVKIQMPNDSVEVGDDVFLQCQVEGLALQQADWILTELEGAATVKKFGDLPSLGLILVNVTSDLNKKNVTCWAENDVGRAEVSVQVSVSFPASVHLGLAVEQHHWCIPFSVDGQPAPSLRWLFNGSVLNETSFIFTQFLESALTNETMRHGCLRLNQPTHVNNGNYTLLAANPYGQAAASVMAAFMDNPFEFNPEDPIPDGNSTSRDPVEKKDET
Method: as §1

[5] = molecular target: T5, recombinant human TrkA protein (human, UniProt P04629-2 34-407, limits assumed); experiment: NGF-blocking ELISA on coated human TrkA, 100 nM btNGF; mAb 0.02 nM
T5 sequence (P04629 other isoform, or with tags, fused parts or gaps limits assumed): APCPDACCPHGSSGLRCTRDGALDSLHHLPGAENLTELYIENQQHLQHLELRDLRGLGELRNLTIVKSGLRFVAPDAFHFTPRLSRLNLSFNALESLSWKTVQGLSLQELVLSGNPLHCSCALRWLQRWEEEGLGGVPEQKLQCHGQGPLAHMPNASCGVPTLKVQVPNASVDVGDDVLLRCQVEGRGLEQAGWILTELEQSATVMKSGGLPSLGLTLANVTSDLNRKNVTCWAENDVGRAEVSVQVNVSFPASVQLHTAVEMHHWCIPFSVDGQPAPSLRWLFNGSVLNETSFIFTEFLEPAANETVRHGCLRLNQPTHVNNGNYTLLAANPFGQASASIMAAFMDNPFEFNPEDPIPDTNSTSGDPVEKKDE
Method: (§2) Each row of a 96-well high-binding clear-bottom microtiter plate (Microlon, #655061) was coated overnight at 4° C. with 100 μL/well of recombinant human TrkA protein, diluted to 2 μg/mL in phosphate buffered saline, pH 7.2 (PBS). The next day, the coating solution was removed, and the plate was blocked with 150 μL of Casein-PBS (Thermo Scientific, #37528) for 1 hour at 25° C. with gentle shaking. The plate was then washed three times with PBS supplemented with 0.05% Tween20 (PBST). A two-fold dilution series of exemplified antibodies, along with IgG4 and IgG1 isotype control antibodies, was generated starting at 20 nM in Casein-PBS. 100 μL of the each dilution series sample was added to a well for 30 min at 37° C. with gentle shaking. The plate was then washed three times with PBST. […] The plate was then washed three times with PBST. A 1:3500 dilution of a 1 mg/mL stock solution of streptavidin-HRP (Thermo Scientific, #21130) in Casein-PBS was prepared and […] was added to each well for 20 min at 37° C. with gentle shaking. The plate was washed three times with PBST. […] The reaction was stopped by addition of 100 μL of 1M H₃PO₄ to each well. The absorbance at 450 nm (Abs450) was measured using a SpectraMax 340PC plate reader (Molecular Devices).

[6] = molecular target: T5, recombinant human TrkA protein; experiment: NGF-blocking ELISA on coated human TrkA, 100 nM btNGF; mAb 10 nM
Method: as §2

[7] = molecular target: T5, recombinant human TrkA protein; experiment: NGF-blocking ELISA on coated human TrkA, 100 nM btNGF; mAb 0.63 nM
Method: as §2

[8] = molecular target: T5, recombinant human TrkA protein; experiment: NGF-blocking ELISA on coated human TrkA, 100 nM btNGF; mAb 0.31 (printed pM, two-fold series gives nM)
Method: as §2

[9] = molecular target: T3, Human TrkA Extracellular Domain Isoform …; experiment: SPR, mAb captured on Protein A chip, 37 C; remark: listed apart in the source
Method: Antibodies are captured onto a Series-S Sensor Protein A CM5 chip (GE Healthcare). For each channel, Flow Cell 1 (FC1) is designated as a buffer reference and Flow Cell 2 (FC2) is designated for antibody capture. All FC2 on all eight channels are set to capture approximately 89 response units (RU) of antibody at a flow rate of 10 μL/min. All antibody samples are prepared at 5 μg/mL by dilution into the running buffer. […] Before the analysis cycle, the chip is regenerated with 3 injections of glycine (pH ˜1.5) at 100 μL/min for a contact time of 15 seconds on FC1 and FC2 in order to clean the surface of the chip. […] This is repeated for each antibody evaluated. Data is processed using predefined antibody parallel kinetics with reference subtraction and fit to a 1:1 binding model using BIACORE™ 8K evaluation software (version 1.1.1.7442) to determine the association rate (on-rate, kon, M⁻¹s⁻¹ units) and the dissociation rate (off-rate, koff, s⁻¹ units). The equilibrium dissociation constant (KD) is calculated from the relationship KD=koff/kₒₙ, in molar units. The average (Avg) KD and error, reported as the standard deviation (SD), is determined from three independent experiments.

- Kd [1]: 3.9 nM
- koff [1]: 0.00069 s⁻¹
- kon [1]: 180000 M⁻¹ s⁻¹
- Kd [2]: 3.6 nM
- koff [2]: 0.00069 s⁻¹
- kon [2]: 190000 M⁻¹ s⁻¹
- Kd [3]: 4.1 nM
- koff [3]: 0.00072 s⁻¹
- kon [3]: 180000 M⁻¹ s⁻¹
- Kd [4]: 6.1 nM
- koff [4]: 0.00069 s⁻¹
- kon [4]: 110000 M⁻¹ s⁻¹
- Absorbance 450 nm [5]: 1.11
- Absorbance 450 nm [6]: 0.2
- Absorbance 450 nm [7]: 0.38
- Absorbance 450 nm [8]: 0.73
B1: mAb A (antibody, human IgG4 S228P, kappa, F234A L235A, V domains shown)
VH: EVQLVESGGGLVKPGGSLRLSCAASGFTFSGVSINWVRQAPGKGLEWVSSETTSSGTIYYADSVKGRFTISRDNAKNSLYLQMNSLRAEDTAVYYCARSYYYGMDVWGQGTTVTVSS
VL: DIVMTQTPLSSPVTLGQPASISCRSSQSLVHRNGNTYLSWLQQRPGQPPRLLIYKISNRFSGVPDRFSGSGAGTDFTLKISRVEAEDVGVYYCMQARQFPLTFGGGTKVEIKR
notes: Human IgG4PAA/Kappa

- Kd [1]: 6.7 nM
- koff [1]: 0.0013 s⁻¹
- kon [1]: 200000 M⁻¹ s⁻¹
- Kd [2]: 6.6 nM
- koff [2]: 0.0013 s⁻¹
- kon [2]: 200000 M⁻¹ s⁻¹
- Kd [3]: 6.6 nM
- koff [3]: 0.0013 s⁻¹
- kon [3]: 200000 M⁻¹ s⁻¹
- Kd [4]: 10.2 nM
- koff [4]: 0.0012 s⁻¹
- kon [4]: 120000 M⁻¹ s⁻¹
- Absorbance 450 nm [5]: 0.97
- Absorbance 450 nm [6]: 0.15
- Absorbance 450 nm [7]: 0.3
- Absorbance 450 nm [8]: 0.56
B2: mAb C (antibody, human IgG4 S228P, kappa, F234A L235A)
heavy: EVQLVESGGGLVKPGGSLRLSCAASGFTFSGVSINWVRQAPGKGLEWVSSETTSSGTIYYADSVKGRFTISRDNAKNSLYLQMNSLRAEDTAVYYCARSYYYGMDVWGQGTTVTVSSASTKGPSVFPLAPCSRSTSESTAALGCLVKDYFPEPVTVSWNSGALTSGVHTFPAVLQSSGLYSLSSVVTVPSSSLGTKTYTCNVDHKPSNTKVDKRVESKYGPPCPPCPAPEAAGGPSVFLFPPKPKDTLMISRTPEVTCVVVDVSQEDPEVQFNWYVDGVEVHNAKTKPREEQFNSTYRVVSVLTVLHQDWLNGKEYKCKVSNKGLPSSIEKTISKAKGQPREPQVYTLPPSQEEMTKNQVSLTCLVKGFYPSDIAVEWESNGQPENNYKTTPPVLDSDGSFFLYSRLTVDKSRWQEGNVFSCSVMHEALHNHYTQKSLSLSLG
light: DIVMTQTPLSSPVTLGQPASISCRSSQSLVHRQGNTYLSWLQQRPGQPPRLLIYKISNRFSGVPDRFSGSGAGTDFTLKISRVEAEDVGVYYCMQARQFPLTFGGGTKVEIKRTVAAPSVFIFPPSDEQLKSGTASVVCLLNNFYPREAKVQWKVDNALQSGNSQESVTEQDSKDSTYSLSSTLTLSKADYEKHKVYACEVTHQGLSSPVTKSFNRGEC
notes: Human IgG4PAA/Kappa

- Kd [1]: 6.7 nM
- koff [1]: 0.0013 s⁻¹
- kon [1]: 190000 M⁻¹ s⁻¹
- Kd [2]: 6.9 nM
- koff [2]: 0.0013 s⁻¹
- kon [2]: 190000 M⁻¹ s⁻¹
- Kd [3]: 6.8 nM
- koff [3]: 0.0013 s⁻¹
- kon [3]: 190000 M⁻¹ s⁻¹
- Kd [4]: 10.5 nM
- koff [4]: 0.0012 s⁻¹
- kon [4]: 120000 M⁻¹ s⁻¹
- Absorbance 450 nm [5]: 0.97
- Absorbance 450 nm [6]: 0.14
- Absorbance 450 nm [7]: 0.25
- Absorbance 450 nm [8]: 0.55
- Kd [9]: 7.7 nM
- koff [9]: 0.0012 s⁻¹
- kon [9]: 160000 M⁻¹ s⁻¹
B3: mAb B (antibody, human IgG4 S228P, kappa, F234A L235A)
heavy: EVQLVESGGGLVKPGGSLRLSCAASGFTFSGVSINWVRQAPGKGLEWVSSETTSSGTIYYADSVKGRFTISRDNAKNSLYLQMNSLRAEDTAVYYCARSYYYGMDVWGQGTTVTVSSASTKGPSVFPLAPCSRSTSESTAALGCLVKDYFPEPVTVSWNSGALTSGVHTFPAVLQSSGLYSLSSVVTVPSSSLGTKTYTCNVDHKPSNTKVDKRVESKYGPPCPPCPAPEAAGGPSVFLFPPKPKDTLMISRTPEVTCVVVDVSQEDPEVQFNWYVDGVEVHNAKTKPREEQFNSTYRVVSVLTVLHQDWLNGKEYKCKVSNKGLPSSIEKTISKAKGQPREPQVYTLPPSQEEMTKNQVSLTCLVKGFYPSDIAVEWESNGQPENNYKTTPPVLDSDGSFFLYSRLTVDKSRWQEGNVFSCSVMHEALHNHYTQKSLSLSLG
light: B2 light with Q33A
notes: Human IgG4PAA/Kappa
